Legend:
SARS-CoV-2 [1] = experiment: microbe, parasite or virus in culture; format: cell-based; settings: Huh-7 cells; for anti-SARS-CoV-2 activity, percentage of infected Huh-7 cells: protein at 2.3 μM, FIG. 6E
SARS-CoV-2 [2] = format: cell-based, SARS-CoV-2 WA1; settings: iAECs, pretreatment 1.15 μM, MOI 10
SARS-CoV-2 [3] = format: cell-based, SARS-CoV-2 WA1; settings: Huh-7 cells, MOI 0.2, 48 hrs p.i., FIG. 6C
[4] = test system: IFNβ, ISG15, MX1, Viperin and IFITM3; experiment: qPCR of IFNβ and interferon-stimulated gene mRNA in Huh-7 cells; format: cell-based, human; settings: lactoferrin-treated Huh-7 cells, FIG. 6D

Molecule	antiviral activity against SARS-CoV-2 (in words) (SARS-CoV-2 [1])	antiviral activity when added after infection (SARS-CoV-2 [1]; 2.3 μM added 1 or 24 hrs p.i., MOI 1, 5 and 10, FIG. 6B)	EC50 (SARS-CoV-2 [1]; MOI 0.2, 10-point two-fold dilution dose response in triplicate) [nM]	potentiation of efficacy in combination with remdesivir (SARS-CoV-2 [1]; MOI 0.2, FIG. 6G, FIG. 7A)	potentiation of efficacy in combination with hydroxychloroquine (SARS-CoV-2 [1]; MOI 10, FIG. 6H, FIG. 7B)	IC50 (SARS-CoV-2 [1]; read-out: IC50 against SARS-CoV-2 infection) [nM]	reduction in the proportion of SARS-CoV-2 infected cells (SARS-CoV-2 [2])	viral replication (viral genome copies) (SARS-CoV-2 [3])	mRNA levels of IFNβ and interferon-stimulated genes ISG15, MX1, Viperin and IFITM3 [4]	anti-SARS-CoV-2 activity, percentage of infected Huh-7 cells (SARS-CoV-2 [1])
Lacto ferrin: a protein found in milk and other secretory fluids; diet supplement (protein, UniProt P24627 20-708, looked up) Lactotransferrin: APRKNVRWCTISQPEWFKCRRWQWRMKKLGAPSITCVRRAFALECIRAIAEKKADAVTLDGGMVFEAGRDPYKLRPVAAEIYGTKESPQTHYYAVAVVKKGSNFQLDQLQGRKSCHTGLGRSAGWIIPMGILRPYLSWTESLEPLQGAVAKFFSASCVPCIDRQAYPNLCQLCKGEGENQCACSSREPYFGYSGAFKCLQDGAGDVAFVKETTVFENLPEKADRDQYELLCLNNSRAPVDAFKECHLAQVPSHAVVARSVDGKEDLIWKLLSKAQEKFGKNKSRSFQLFGSPPGQRDLLFKDSALGFLRIPSKVDSALYLGSRYLTTLKNLRETAEEVKARYTRVVWCAVGPEEQKKCQQWSQQSGQNVTCATASTTDDCIVLVLKGEADALNLDGGYIYTAGKCGLVPVLAENRKSSKHSSLDCVLRPTEGYLAVAVVKKANEGLTWNSLKDKKSCHTAVDRTAGWNIPMGLIVNQTGSCAFDEFFSQSCAPGADPKSRLCALCAGDDQGLDKCVPNSKEKYYGYTGAFRCLAEDVGDVAFVKNDTVWENTNGESTADWAKNLNREDFRLLCLDGTRKPVTEAQSCHLAVAPNHAVVSRSDRAAHVKQVLLHQQALFGKNGKNCPDKFCLFKSETKNLLFNDNTECLAKLGGRPTYEEYLGTEYVTAIANLKKCSTSPLLEACAFLTR	dose-dependent (3 nM-2.3 μM) and MOI-dependent (0.2-10) antiviral activity	retains antiviral activity	308	potentiates the efficacy	potentiates the efficacy	308	two-fold reduction	dose-dependent reduction of viral replication	elevated	
apolactoferrin: apolactoferrin (Jarrow Formulas, 121011); component of dietary supplements (protein, UniProt P24627 20-708, looked up, iron-free apo form, apolactoferrin (Jarrow Formulas, 121011); component of dietary supplements) Lactotransferrin: APRKNVRWCTISQPEWFKCRRWQWRMKKLGAPSITCVRRAFALECIRAIAEKKADAVTLDGGMVFEAGRDPYKLRPVAAEIYGTKESPQTHYYAVAVVKKGSNFQLDQLQGRKSCHTGLGRSAGWIIPMGILRPYLSWTESLEPLQGAVAKFFSASCVPCIDRQAYPNLCQLCKGEGENQCACSSREPYFGYSGAFKCLQDGAGDVAFVKETTVFENLPEKADRDQYELLCLNNSRAPVDAFKECHLAQVPSHAVVARSVDGKEDLIWKLLSKAQEKFGKNKSRSFQLFGSPPGQRDLLFKDSALGFLRIPSKVDSALYLGSRYLTTLKNLRETAEEVKARYTRVVWCAVGPEEQKKCQQWSQQSGQNVTCATASTTDDCIVLVLKGEADALNLDGGYIYTAGKCGLVPVLAENRKSSKHSSLDCVLRPTEGYLAVAVVKKANEGLTWNSLKDKKSCHTAVDRTAGWNIPMGLIVNQTGSCAFDEFFSQSCAPGADPKSRLCALCAGDDQGLDKCVPNSKEKYYGYTGAFRCLAEDVGDVAFVKNDTVWENTNGESTADWAKNLNREDFRLLCLDGTRKPVTEAQSCHLAVAPNHAVVSRSDRAAHVKQVLLHQQALFGKNGKNCPDKFCLFKSETKNLLFNDNTECLAKLGGRPTYEEYLGTEYVTAIANLKKCSTSPLLEACAFLTR										robust antiviral effect
Hololactoferrin: Hololactoferrin (Sigma Aldrich, L4765) (protein, UniProt P02788 20-710, looked up, iron-saturated holo form) Lactotransferrin: GRRRSVQWCAVSQPEATKCFQWQRNMRKVRGPPVSCIKRDSPIQCIQAIAENRADAVTLDGGFIYEAGLAPYKLRPVAAEVYGTERQPRTHYYAVAVVKKGGSFQLNELQGLKSCHTGLRRTAGWNVPIGTLRPFLNWTGPPEPIEAAVARFFSASCVPGADKGQFPNLCRLCAGTGENKCAFSSQEPYFSYSGAFKCLRDGAGDVAFIRESTVFEDLSDEAERDEYELLCPDNTRKPVDKFKDCHLARVPSHAVVARSVNGKEDAIWNLLRQAQEKFGKDKSPKFQLFGSPSGQKDLLFKDSAIGFSRVPPRIDSGLYLGSGYFTAIQNLRKSEEEVAARRARVVWCAVGEQELRKCNQWSGLSEGSVTCSSASTTEDCIALVLKGEADAMSLDGGYVYTAGKCGLVPVLAENYKSQQSSDPDPNCVDRPVEGYLAVAVVRRSDTSLTWNSVKGKKSCHTAVDRTAGWNIPMGLLFNQTGSCKFDEYFSQSCAPGSDPRSNLCALCIGDEQGENKCVPNSNERYYGYTGAFRCLAENAGDVAFVKDVTVLQNTDGNNNEAWAKDLKLADFALLCLDGKRKPVTEARSCHLAMAPNHAVVSRMDKVERLKQVLLHQQAKFGRNGSDCPDKFCLFQSETKNLLFNDNTECLARLHGKTTYEKYLGPQYVAGITNLKKCSTSPLLEACEFLRK										robust antiviral effect

Source: patent publication US20240016901A1, “COMPOSITIONS AND METHODS FOR PREVENTING AND TREATING SARS-COV-2 INFECTION” (priority 2020, published 2024)
